We go through 17 molecules from patent US20210009686A1 (BEIJING XUANYI PHARMASCIENCES, published 2021).

By EC50 is commonly meant the concentration needed to bring the measured effect to its halfway point. A higher EC50 goes with lower potency in that assay.

For assay [1], the target named is T1, claudin 18.2 (CLDN18.2) (human).
T1 construct: also called Claudin 18 isotype 2; HEK293-CLDN18.2
As to the kind of experiment: FACS, HEK293-CLDN18.2 cells.
Protocol: The interaction of 20 purified chimeric antibodies with CLDN18.2 was assessed by in-cell ELISAs and FACS using HEK293-CLDN18.2 cells. […] The FACS assays were performed as follows: Serial dilutions for each antibody clone shown in Tables 7 and 8 were prepared and stained with HEK293-CLDN18.2 cells on ice for 30 min, with final antibody concentrations of 10 g/ml, 3 g/ml, 1 g/ml, 0.3 μg/ml, 0.1 μg/ml, 0.03 μg/ml, 0.01 μg/ml, and 0 μg/ml. […] Cells were washed, and analyzed by FACS.

Assay [2] concerns the target T1, claudin 18.2 (CLDN18.2). In words: in-cell ELISA, HEK293-CLDN18.2 cells. Background: An ELISA detects its analyte on a solid surface through an enzyme-linked reagent.
Protocol: (§1) In-cell ELISAs were performed as follows: 5×10³ HEK293-CLDN18.2 cells were seeded per well in a poly-L-lysine-coated 96-well plate. The plates were then incubated at 37° C. with 5% CO₂ for 2 days. Following incubation, culture media was removed from each well, and the HEK293-CLDN18.2 cells were blocked with 200 μl blocking buffer (3% BSA/PBS (pH 7.4)) per well for 1 hour at room temperature. Each hybridoma supernatant was incubated with cells at room temperature for 1 hour. Cells were gently washed 3 times with 200 μl PBS (pH 7.4) containing 1 mM Ca²⁺ and 0.5 mM Mg²⁺. Next, cells were incubated with 100 μl of HRP-conjugated goat anti-human IgG (H+L) antibody for 1 hour at room temperature. Following the incubation, the cells were washed three times with 200 μl PBS (pH 7.4) containing 1 mM Ca²⁺ and 0.5 mM Mg²⁺. 100 μl of 1-Step™ Ultra TMB-ELISA Substrate was added to each well, and the reactions were stopped by addition of 50 μl of stop solution. OD₄₅₀ was measured using CLARIOStar microplate reader. The in-cell ELISAs were repeated for each clone using HEK293-CLDN18.1 cells.
The in-cell ELISAs were performed as described above. […] Cells were washed, and analyzed by FACS.
For assay [3], the target named is T1, claudin 18.2 (CLDN18.2). In words: in-cell ELISA, hybridoma supernatant on HEK293-CLDN18.2 cells.
Protocol: as §1
Assay [4] has as its target T2, claudin 18.1 (CLDN18.1) (human, UniProt P56856 1-261).
T2 construct: also called HEK293-CLDN18.1
In words: in-cell ELISA, hybridoma supernatant on HEK293-CLDN18.1 cells.
Protocol: as §1

Assay [5] concerns the target T1, claudin 18.2 (CLDN18.2). In words: FACS, hybridoma supernatant on HEK293-CLDN18.2.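 Also: flow cytometry of hybridoma supernatants taken 10 days after fusion, applied to HEK293 cells stably expressing CLDN18.2, with MFI standing for mean fluorescence intensity.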 In general terms: Flow cytometry measures light scatter and fluorescence of single cells or particles in a stream.
Description: (§2) Ten days after fusion, hybridoma supernatants were screened by FACS against HEK293-CLDN18.2, HEK293-CLDN18.1 and HEK293.
Assay [6] concerns the target T2, claudin 18.1 (CLDN18.1). As to the kind of experiment: FACS, hybridoma supernatant on HEK293-CLDN18.1.
Description: as §2
In assay [7] the target is T2, claudin 18.1 (CLDN18.1). In words: in-cell ELISA, HEK293-CLDN18.1 cells.
Protocol: as §1

T2 sequence (P56856 whole entry): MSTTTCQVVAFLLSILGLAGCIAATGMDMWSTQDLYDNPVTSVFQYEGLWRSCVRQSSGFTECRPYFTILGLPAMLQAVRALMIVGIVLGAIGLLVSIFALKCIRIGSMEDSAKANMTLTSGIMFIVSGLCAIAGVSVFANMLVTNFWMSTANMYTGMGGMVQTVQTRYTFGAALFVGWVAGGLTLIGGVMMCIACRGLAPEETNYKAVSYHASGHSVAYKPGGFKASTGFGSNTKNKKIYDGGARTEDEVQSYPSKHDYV

B1: chimeric Ab 1-B13-A (antibody, V domains shown)
VH: QVQLQQSGAELARPGASVKLSCKASGYTFTVWSMSWVKQRTGQGLQWIGEIYPKSGNTHYNEKFKGKATLTADKSSSTVYMQLSSLTSEDSAVYFCARAYYGNSFAYWGQGTLVTVPA
VL: DIVMTQSPSPLTVTAGEKATMSCKSSQSLLNSGNQRNYLTWYQQKPGQPPKLLIYWASTRESGVPDRFTGSGSGTDFSLTISSVQAEDLAVYYCQNDFIYPFTFGSGTKLEIK
In the case of B1, the EC50 is 0.036 µg/mL with claudin 18.2 (CLDN18.2) [1] and 0.059 µg/mL with claudin 18.2 (CLDN18.2) [2].

B2: chimeric Ab 10-P12-A (antibody, V domains shown)
VH: EIQLQQSGAELVKPGTSVKISCKASGYSFTGYNMNWVKQSHGKSLEWIGNINPYYSNTNYNQRFKGKATLTVDKSSSTAYMQLNSLTSEDSAVYYCARHVRGNSFDYWGQGTTLTVSS
VL: DIVMTQSPSSLTVTAGERVTVGCKSRQSLFNSENQKNYLSWYQQKPGQPPKLLLYWTSTRESGVPERFTGSGSGTDFTLTISSVQAEDLAVYYCQNNYIYPFTFGSGTKLEIK
For B2, the half-maximal effective concentration (EC50) worked out at 0.018 µg/mL with claudin 18.2 (CLDN18.2) [1] and 0.106 µg/mL with claudin 18.2 (CLDN18.2) [2].

B3: chimeric Ab 4-N1-A (antibody, V domains shown)
VH: EVQLVNSGGGLVKPGGSRKLSCAASGFTFSDYGMHWVRQAPEKGLEWVAYISSGSSTIYYADTMKGRFTISRDNAKNTLFLQMTSLRSEDTAMYYCARFVRGNSMDYWGQGTSVTVSS
VL: DIVMTQSPSSLTVTAGEKVTMSCKSSQSLLNSGNQKNYLTWYQQKPGQPPKLLIYWASTRESGVPDRFTGSGSGTDFTLTISSVQAEDLTVYYCQNAYSYPLTFGAGTKLELK
In the case of B3, the results for the EC50 in the assay with claudin 18.2 (CLDN18.2) [1] and with claudin 18.2 (CLDN18.2) [2] were 0.029 µg/mL and 0.059 µg/mL, respectively.

B4: hybridoma clone 1-H16-A (antibody, V domains shown)
VH: EVQLVESGGGLVKPGGSRKLSCAASGFTFSDYGMYWVRQAPEKGLEWVAFISSGSSTIYCADTVKGRFTISRDNAKNTLFLQMTSLRSEDTAMYYCARIARGNAMDYWGQGTSVTVSS
VL: DIVMTQSPSSLTVTAGERVTMSCKSSQSLLNSGNLKNYLTWYQQKPGQPPKLLIYWASTRESGVPDRFTGSGSGTDFTLTISTVQAEDLAVYYCQNDYFYPLTFGAGTKLELK
For the molecule B4, the “OD450/µg IgG” value with claudin 18.2 (CLDN18.2) [3] was 14.2 OD450/µg IgG; in the assay with claudin 18.1 (CLDN18.1) [4], 1.05 OD450/µg IgG. Moreover, the values for the MFI with claudin 18.2 (CLDN18.2) [5] and with claudin 18.1 (CLDN18.1) [6] were 121000 and 28300, respectively.

B5: chimeric Ab 9-A13-B (antibody, V domains shown)
VH: EVQLVESGGGLVKPGGSRKLSCAASGFSFSDYGMHWVRQAPEKGLEWVAHISSGSSTIYYADTMKGRFTISRDNAKNTLFLQMTSLRSEDTAMYYCARFARGNTMDYWGQGTSVTVSS
VL: DIVMTQSPSSLTVTAGEKVTMSCKSSQSLLNSGNQKNYLTWYQQKPGQPPKLLIYWASTRESGVPDRFTGSGSGTDFTLTISSVQAEDLTVYYCQNGYSYPLTFGAGTKLELK
B5: the concentration giving a half-maximal response (EC50) with claudin 18.2 (CLDN18.2) [1] worked out at 0.068 µg/mL; with claudin 18.2 (CLDN18.2) [2], 0.15 µg/mL.

B6: chimeric Ab 1-H16-A (antibody, V domains shown)
VH: EVQLVESGGGLVKPGGSRKLSCAASGFTFSDYGMYWVRQAPEKGLEWVAFISSGSSTIYCADTVKGRFTISRDNAKNTLFLQMTSLRSEDTAMYYCARIARGNAMDYWGQGTSVTVSS
VL: DIVMTQSPSSLTVTAGERVTMSCKSSQSLLNSGNLKNYLTWYQQKPGQPPKLLIYWASTRESGVPDRFTGSGSGTDFTLTISTVQAEDLAVYYCQNDYFYPLTFGAGTKLELK
As for B6, the EC50 in the assay with claudin 18.2 (CLDN18.2) [1] came to 0.101 µg/mL; with claudin 18.2 (CLDN18.2) [2], 0.08 µg/mL.

B7: chimeric Ab 2-D22-A (antibody, V domains shown)
VH: EVQLVESGGGLVKPGGSRKLSCAASGFTFSDYGMHWVRQAPEKGLEWIAYISSGSSSIYYADTVKGRFTMSRDNAKKTLFLQTTSLRSEDTAMYYCARIARGNAMDYWGQGTSVTVTS
VL: DIVMTQSPSSLTVTAGEKVTMSCKSSQSLLNSGNQRNYLAWYQQKPGQPPKLLIYWASTRESGVPDRFTGSGSGTDFTLTISSVQAEDLAVYYCQNDYSYPLTFGAGTKLELK
For B7, the EC50 stood at 0.051 µg/mL with claudin 18.2 (CLDN18.2) [1] and 0.065 µg/mL with claudin 18.2 (CLDN18.2) [2].

B8: chimeric Ab 6-M11-A (antibody, V domains shown)
VH: EVQLVESGGGSVKPGGSRKLSCAASGFTFSDYGMHWVRQAPEKGLEWVAYISSGSNTFYYTDTVKGRFTISRDNAKNTLFLQMTGLRSEDTAMYYCARFTRGNALDYWGQGTSVTVSS
VL: DIVMTQSPSSLTVTAGEKVTMSCKSSQSLLNSGNQKNYLTWYQQKPGQPPKLLLYWASTRESGVPDRFTGSGSGTDFTLTISSVQAEDLTVYYCQNAYSYPLTFGAGTKLELK
As to B8, the EC50 was found to be 0.026 µg/mL with claudin 18.2 (CLDN18.2) [1] and 0.098 µg/mL in the assay with claudin 18.2 (CLDN18.2) [2].

B9: chimeric Ab 7-G17-A (antibody, V domains shown)
VH: EVQLVESGGGLVKPGGSRKLSCAVSGFTFSDYGMYWVRQAPEKGLEWVAYISSGSSTIYYADTVKGRFTMSRDNAKNTLFLQMTSLRSEDTAMYYCARIARGNAMDYWGQGTSVTVSS
VL: DIVMTQSPSSLTVTPGEKVTMSCKSSQSLFNSGNQRNYLAWYQQKPGQPPKLLIYWASTRESGVPDRFTGSGSGTDFTLTISSVQAEDLAVYYCQNDYFYPLTFGAGTKLELK
For the molecule B9, the results for the EC50 with claudin 18.2 (CLDN18.2) [1] and in the assay with claudin 18.2 (CLDN18.2) [2] were 0.033 µg/mL and 0.098 µg/mL, respectively.

B10: chimeric Ab 9-C6-A (antibody, V domains shown)
VH: EVQLVESGGGLVKPGGSRKLSCAASGFTFSDYGMHWVRQAPEKGLEWVAYISSGSSTIYYADTMKGRFTISRDNAKNTLFLQMTSLRSEDTAMYYCARFVRGNSMDYWGQGTSVTVSS
VL: DIVMTQSPSSLTVTAGEKVTLSCKSSQSLLNSGNQKNYLTWYQQKPRQPPKLLIYWASTRESGVPDRFTGSGSGTDFTLTISNVQAEDLTVYYCQNAYSYPLTFGAGTKLELK
For B10, the EC50 in the assay with claudin 18.2 (CLDN18.2) [1] came to 0.032 µg/mL; with claudin 18.2 (CLDN18.2) [2] it was 0.491 µg/mL.

B11: chimeric Ab 7-B15-A (antibody, V domains shown)
VH: EVQLVESGGGLVKPGGSRKLSCAASGFTFSDYGMHWVRQAPEKGLEWIAHISSGSSTIYYADTMKGRFTISRDNAKNTLFLQMTSLRSEDTAMYYCARFVRGNALDYWGQGTSVTVSS
VL: DIVMTQSPSSLTVTAGEKVTMNCKSSQSLLNSGNQKNYLTWYQQKPGQPPKLLIYWASTRESGVPDRFTGSGSGTDFTLTISSVQAEDLTVYYCQNGYSYPLTFGAGTKLELK
In the case of B11, the values for the EC50 with claudin 18.2 (CLDN18.2) [1] and in the assay with claudin 18.2 (CLDN18.2) [2] were 0.032 µg/mL and 0.066 µg/mL, respectively.

B12: chimeric Ab 5-J22-A (antibody, V domains shown)
VH: EVQLVESGGGLVKPGGSRKLSCAASGFTFSDYGMHWVRQAPEKGLEWVAHISSGSNIIHYADTLKGRFTISRDNAKNTLFLQMTSLRSEDTAMYYCARFARGNTMDYWGQGTSVTVSS
VL: DIVMTQSPSSLTVTAGEKVTMSCKSSQSLLNSGNQKNYLTWYQQKPGQPPKLLIYWASTRESGVPDRFTGSGSGTDFTLTISSVQAEDLTVYYCQNAYSFPLTFGAGTKLELK
notes: also called 5-22-A
For B12, the EC50 with claudin 18.2 (CLDN18.2) [1] was 0.023 µg/mL; in the assay with claudin 18.2 (CLDN18.2) [2], 0.065 µg/mL.

B13: chimeric Ab 7-A21-A (antibody, V domains shown)
VH: EVQLVESGGGLVKPGGSRKLSCAASGFTFSDYGMYWVRQAPEKGLEWLAYISSGSNTIYYADTVKGRFTISRDNAKNTLFLQMTSLRSEDTAMYYCARIARGNAMDYWGQGTSVTVSS
VL: DIVMTQSPSSLTVTAGEKVTMSCKSSQSLLNSGNQKNYLTWYQQKPGQPPKLLIYWASTRESGVPDRFTGSGSGTDFTLTISSVQAEDLAVYYCQNDYIYPLTFGAGTKLGLK
As for B13, the EC50 with claudin 18.2 (CLDN18.2) [1] stood at 0.134 µg/mL; in the assay with claudin 18.2 (CLDN18.2) [2], 0.23 µg/mL.

B14: chimeric Ab 9-B11-A (antibody, V domains shown)
VH: EVQLVESGGGLVKPGGSRKLSCAASGFTFSDYGMHWVRQAPEKGLEWVAYISSGSSPIYYADTVKGRFTISRDNAKNTLFLQMTSLRSEDTAMYYCARFARGNAMDYWGQGTSVTVSS
VL: DIVMTQSPSSLTVTAGEKVTMSCKSSQSLLNSGNQKNYLTWYQQKPGQPPKLLIYWASTRDSGVPDRFTGSGSGTDFTLTISSVQAEDLAVYYCQNNYYYPLTFGAGTNLELK
Regarding B14, the figures for the concentration giving a half-maximal response (EC50) in the assay with claudin 18.2 (CLDN18.2) [1] and with claudin 18.2 (CLDN18.2) [2] were 0.045 µg/mL and 0.069 µg/mL, respectively. In the assay with claudin 18.1 (CLDN18.1) [7], the binding result is reported as “no binding (tested: 1 µg/ml)”.

B15: chimeric Ab 7-E20-A (antibody, V domains shown)
VH: EVQLVESGGGLVKPGGSRKLSCAASGFTFSDYGMHWVRQAPEKGLEWVAYISSGSSTIHYVDTMKGRFTISRDNAKNTLFLQMTSLRSEDTAMYYCARFARGNTLDYWGQGTSVTVSS
VL: DIVMTQSPSSLTVTAGEKVTMSCKSSQSLFNTGNQKNYLTWYQQKPGQPPKLLIYWASTRESGVPDRFTGSGSGTDFTLTISSVQAEDLTVYYCQNGYSYPLTFGAGTKLELK
As to B15, the half-maximal effective concentration (EC50) in the assay with claudin 18.2 (CLDN18.2) [1] is 0.05 µg/mL; with claudin 18.2 (CLDN18.2) [2], 0.198 µg/mL.

B16: chimeric Ab 10-K12-A (antibody, V domains shown)
VH: EVQLVESGGGLVKPGGSRKLSCAASGFTFSDYGMFWVRQAPEKGLEWVGYISSGSSNIYYADTVKGRFTISRDNAKNTLFLQMTSLRSEDTAMYYCARIARGNAMDYWGQGTSVTVSS
VL: DIVMTQSPSSLTVTAGEKVTMSCKSSQSLLNSGNQKNYLTWYQQKPGQPPKLLIYWASTRESGVPDRFTGSGSGTDFTLTISSVQAEDLAIYYCQNDYFYPLTFGAGTKLELK
For B16, the 50% effective concentration (EC50) in the assay with claudin 18.2 (CLDN18.2) [1] worked out at 0.075 µg/mL; with claudin 18.2 (CLDN18.2) [2], 0.05 µg/mL.

B17: chimeric Ab 6-C5-A (antibody, V domains shown)
VH: EVQLVESGGGLVKPGGSRKLSCAASGFTFSDYGMHWVRQAPEKGLEWVAYISSGSSTIYYADTMKGRFTISRDNAKNTLFLQMTSLRSEDTAMYYCTRFARGNTMDYWGQGTSVTVSS
VL: DIVMTQSPSSLTVTAGEKVTMSCKSSQSLLNSGNQRNYLTWYQRKPGQPPKLLIYWASTRESGVPDRFTGSGSGTDFTLTISSVQAEDLTFYYCQNGYSYPLTFGAGTKLELK
On to B17, for which the concentration giving a half-maximal response (EC50) with claudin 18.2 (CLDN18.2) [1] amounted to 0.044 µg/mL; with claudin 18.2 (CLDN18.2) [2], 0.058 µg/mL. Besides, the binding result with claudin 18.1 (CLDN18.1) [7] is recorded as “no binding (tested: 1 µg/ml)”.
